Laboratory results reported in US20130011406A1 (KOLLTAN PHARMACEUTICALS, published 2013).

B1: Fab antibody Ab14 (Fab, V domains shown)
VH: EVQLLESGGGLVQPGGSLRLSCAASGFTFSRYAMWWVRQAPGKGLEWVSYIYSSGGQTGYADSVKGRFTISRDNSKNTLYLQMNSLRAEDTAVYYCARGGVTFDLWGRGTLVTVSS
VL: DIQMTQSPATLSVSPGERATLSCRASQGVSTYLAWYQQKPGQAPRLLIYGASTRATGIPARFSGSGSGTDFTLTINSLELEDFAVYYCQQRRSWPPTFGQGTKVEIK
notes: Fab from a phage library
B2: Fab antibody Ab4 (Fab, V domains shown)
VH: EVQLLESGGGLVQPGGSLRLSCAASGFTFSWYWMYWVRQAPGKGLEWVSGIYPSGGFTSYADSVKGRFTISRDNSKNTLYLQMNSLRAEDTAVYYCARSYYYGSGSYYNSASFDYWGQGTLVTVSS
VL: DIQMTQSPSSLSASVGDRVAITCRASQSIDTYLNWYQQKPGKAPKLLIYAASKLEDGVPSRFSGSGTGTDFTLTIRSLQPEDFASYFCQQSYSSPGITFGPGTKVEIK
notes: Fab from a phage library
B3: Fab antibody Ab15 (Fab, V domains shown)
VH: EVQLLESGGGLVQPGGSLRLSCAASGFTFSNYTMMWVRQAPGKGLEWVSGIRPSGGGTMYADSVKGRFTISRDNSKNTLYLQMNSLRAEDTAVYYCASVVNHKFDNWGQGTLVTVSS
VL: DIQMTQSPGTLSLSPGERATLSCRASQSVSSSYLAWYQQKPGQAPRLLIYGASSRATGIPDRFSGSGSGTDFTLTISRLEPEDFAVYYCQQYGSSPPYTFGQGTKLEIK
notes: Fab from a phage library
B4: Fab antibody Ab19 (Fab, V domains shown)
VH: EVQLLESGGGLVQPGGSLRLSCAASGFTFSNYQMQWVRQAPGKGLEWVSSIRPSGGSTQYADSVKGRFTISRDNSKNTLYLQMNSLRAEDTAVYYCARGSSHAFDIWGQGTMVTVSS
VL: DIQMTQSPGTLSLSPGERATLSCRASQSFRSSYLAWYQQKPGQAPRLLIYDTSTRATGIPDRFSGSGSGTDFTLTISRLEPEDFAVYYCQQYGSSPPMYTFGQGTKLEIK
notes: Fab from a phage library
B5: Fab antibody Ab12 (Fab, V domains shown)
VH: EVQLLESGGGLVQPGGSLRLSCAASGFTFSFYKMHWVRQAPGKGLEWVSGIWPSGGYTEYADSVKGRFTISRDNSKNTLYLQMNSLRAEDTAVYYCARSSGYHIDYWGQGTLVTVSS
VL: DIQMTQSPGTLSLSPGERATLYCRASQSVKSNYLAWYQQKPGQAPRLLIYGASTRATDIPDRFSGSGSGTDFTLTISRLEPEDFAVYYCQQYGSSLSYTFGQGTKLEIK
notes: Fab from a phage library
B6: Fab antibody Ab18 (Fab, V domains shown)
VH: EVQLLESGGGLVQPGGSLRLSCAASGFTFSWYAMWWVRQAPGKGLEWVSYISSSGGATRYADSVKGRFTISRDNSKNTLYLQMNSLRAEDTAVYYCATVLQYGAFDIWGQGTMVTVSS
VL: QSALTQPPSTSGTPGQRVTISCSGSSSNIGSNYVYWYQQLPGTAPKVLIYRNNKRPSGVPDRFSGSKSGTSASLAISGLRSEDEADYYCAAWDDSLNGVIFGGGTRLTVL
notes: Fab from a phage library
B7: Fab antibody Ab16 (Fab, V domains shown)
VH: EVQLLESGGGLVQPGGSLRLSCAASGFTFSQYVMFWVRQAPGKGLEWVSSIYPSGGHTLYADSVKGRFTISRDNSKNTLYLQMNSLRAEDTAVYYCAKHARGYNRGYFDSWGRGTLVTVSS
VL: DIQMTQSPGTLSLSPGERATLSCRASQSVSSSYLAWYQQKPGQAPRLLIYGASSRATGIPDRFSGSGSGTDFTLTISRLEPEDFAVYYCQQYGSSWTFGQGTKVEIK
notes: Fab from a phage library
B8: IgG version of Fab antibody Ab1 (antibody, V domains shown)
VH: EVQLLESGGGLVQPGGSLRLSCAASGFTFSNYLMSWVRQAPGKGLEWVSSIVPSGGFTHYADSVKGRFTISRDNSKNTLYLQMNSLRAEDTAVYYCARLQTGSWRVHAFDIWGQGTMVTVSS
VL: DIQMTQSPTSLSAFVGDRVTITCQASQDIGNYLNWYQQKSGEPPKLLVYDASFLKKGVPSRFSGSGSGTQYFLTIYSLQPEDFATYFCQHSDNLSVTFGGGTKVEVK
notes: Variable regions of Fab Ab1 cloned into the Dyax pR vector
B9: full-length human IgG1 antibody Ab1 (antibody, V domains shown)
VH: EVQLLESGGGLVQPGGSLRLSCAASGFTFSNYLMSWVRQAPGKGLEWVSSIVPSGGFTHYADSVKGRFTISRDNSKNTLYLQMNSLRAEDTAVYYCARLQTGSWRVHAFDIWGQGTMVTVSS
VL: DIQMTQSPTSLSAFVGDRVTITCQASQDIGNYLNWYQQKSGEPPKLLVYDASFLKKGVPSRFSGSGSGTQYFLTIYSLQPEDFATYFCQHSDNLSVTFGGGTKVEVKR
notes: also called human monoclonal Ab1
B10: Antibody Ab1 conjugated with the fluorescent dye Alexa-488 (antibody, V domains shown)
VH: EVQLLESGGGLVQPGGSLRLSCAASGFTFSNYLMSWVRQAPGKGLEWVSSIVPSGGFTHYADSVKGRFTISRDNSKNTLYLQMNSLRAEDTAVYYCARLQTGSWRVHAFDIWGQGTMVTVSS
VL: DIQMTQSPTSLSAFVGDRVTITCQASQDIGNYLNWYQQKSGEPPKLLVYDASFLKKGVPSRFSGSGSGTQYFLTIYSLQPEDFATYFCQHSDNLSVTFGGGTKVEVK
modifications: conjugated with the fluorescent dye Alexa-488 (chain and site not stated)
notes: also called Ab1-Alexa488
B11: full-length human IgG1 antibody Ab21 (antibody, V domains shown)
VH: EVQLLESGGGLVQPGGSLRLSCAASGFTFSNYLMSWVRQAPGKGLEWVSSIVPSGGFTHYADSVKGRFTISRDNSKNTLYLQMNSLRAEDTAVYYCARLQTGSWRVHAFDIWGQGTMVTVSS
VL: DIQMTQSPTSLSAFVGDRVTITCQASQDIGNYLNWYQQKSGEPPKLLVYDASFLKKGVPSRFSGSGSGTQYFLTIYSLQPEDFATYFCQHSDSLSVTFGGGTKVEVKR
notes: Derived from Ab1 by changing the N in VL CDR3 to S to remove a glycosylation site; also called human monoclonal Ab21
B12: Fab antibody Ab11 (Fab, V domains shown)
VH: EVQLLESGGGLVQPGGSLRLSCAASGFTFSNYRMMWVRQAPGKGLEWVSGIYPSGGGTFYADSVKGRFTISRDNSKNTLYLQMNSLRAEDTAVYYCARKKMATFAAFDIWGQGTMVTVSS
VL: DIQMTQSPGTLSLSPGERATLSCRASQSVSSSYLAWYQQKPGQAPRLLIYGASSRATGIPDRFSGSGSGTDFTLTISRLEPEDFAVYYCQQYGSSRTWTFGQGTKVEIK
notes: Fab from a phage library

Experiments:
[1] = biological target: T1, recombinant D4 domain polypeptide of human KIT (V308 to K412, with His tag) (human, UniProt P10721 26-412); experiment: solid phase ELISA, polypeptide coated on plate
T1 construct: also called D4 domain of human KIT
T1 sequence (P10721 other isoform, or with tags, fused parts or gaps limits assumed): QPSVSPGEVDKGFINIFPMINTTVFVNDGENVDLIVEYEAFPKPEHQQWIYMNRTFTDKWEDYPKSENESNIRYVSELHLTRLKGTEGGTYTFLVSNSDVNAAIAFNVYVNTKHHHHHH

[2] = biological target: T2, recombinant D5 domain polypeptide of human KIT (N410 to H515, with His tag) (human, UniProt P10721 26-519); experiment: solid phase ELISA, polypeptide coated on plate
T2 construct: also called D5 domain of human KIT
T2 sequence (P10721 other isoform, or with tags, fused parts or gaps limits assumed): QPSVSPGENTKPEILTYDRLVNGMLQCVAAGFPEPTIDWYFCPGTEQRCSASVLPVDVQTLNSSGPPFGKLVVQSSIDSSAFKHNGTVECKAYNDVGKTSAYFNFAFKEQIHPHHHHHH

[3] = biological target: T3, recombinant KIT D4/D5 polypeptide (D4/D5 region of human KIT, V308 to H515, with 5xHis tag) (human, UniProt P10721 26-519); experiment: solid phase ELISA, D4/D5 polypeptide coated on plate
T3 construct: also called recombinant antigen; recombinant IG domain four and five of the extracellular region of KIT
T3 sequence (P10721 other isoform, or with tags, fused parts or gaps limits assumed): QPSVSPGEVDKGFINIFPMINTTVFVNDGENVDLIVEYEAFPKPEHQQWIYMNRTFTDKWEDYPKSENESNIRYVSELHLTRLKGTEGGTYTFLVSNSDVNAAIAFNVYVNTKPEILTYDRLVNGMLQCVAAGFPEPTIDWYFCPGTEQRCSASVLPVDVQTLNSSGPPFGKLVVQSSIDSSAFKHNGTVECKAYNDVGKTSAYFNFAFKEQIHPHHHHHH
Description: (§1) Coating plates with antigen: Recombinant antigen containing the D4/D5 region of the KIT extracellular Ig-like region (see FIG. 2A) were absorbed to 96-well microtiter plates. 10 μg of recombinant antigen (i.e., D4/D5 region of KIT) were diluted into 10 mL of borate buffer, and 100 μL of the antigen solution were added to each well of a 96 well plate. The 96 well plate was covered with a plate sealer, was incubated at 4° C. overnight, and then stored at −80° C. until the day of the assay.
ELISA: The plate with the absorbed antigen was removed from the −80° C. freezer and was allowed to thaw at room temperature. The borate buffer was removed by flicking the plate into the sink and blotting the plate dry. 200 μL of the blocking buffer were added to each well and allowed to incubate at room temperature for one hour. The blocking buffer was removed, again by flicking the plate into the sink. Then, the diluted solution of test antibodies and controls (were added to the plate in a volume of 50 μL and incubated at room temperature for one hour. The antibody solutions were removed, and the plate was washed four times with 300 μL of wash buffer with five minute incubations. After the last wash, the plate was blotted dry. The diluted secondary antibody solution was added to each well in a volume of 100 μL and allowed to incubate for one hour at room temperature. The diluted secondary antibody solution was removed, and the plate was washed four times with 300 μL of wash buffer with five minute incubations. The plate was then blotted dry, and freshly mixed substrate solution was added to each well in a volume of 100 μL and was allowed to incubate at room temperature for 30 minutes. Subsequently, 100 μL of 2NH₂SO₄ were added to each well and immediately read on the plate reader. An irrelevant antibody served as the negative control, and an anti-KIT antibody against the D4 and/or D5 domain of the extracellular region of KIT served as the positive control. OD values for each sample were obtained at a wavelength of 450 nm.

[4] = biological target: T2, recombinant D5 domain polypeptide of …; experiment: solid phase ELISA, D5 polypeptide coated on plate
[5] = biological target: T3, recombinant KIT D4/D5 polypeptide …; experiment: solid phase ELISA, D4/D5 antigen coated on plate, Fab; concentration at 50% binding
Description: as §1
ELISA: The plate with the absorbed antigen was removed from the −80° C. freezer and was allowed to thaw at room temperature. The borate buffer was removed by flicking the plate into the sink and blotting the plate dry. 200 μL of the blocking buffer were added to each well and allowed to incubate at room temperature for one hour. The blocking buffer was removed, again by flicking the plate into the sink. […] Subsequently, 100 μL of 2NH₂SO₄ were added to each well and immediately read on the plate reader. […]

[6] = biological target: T4, full-length, wild-type human KIT (human, UniProt P10721 26-976); experiment: cell-based or functional assay
T4 sequence (P10721 other isoform, or with tags, fused parts or gaps limits assumed): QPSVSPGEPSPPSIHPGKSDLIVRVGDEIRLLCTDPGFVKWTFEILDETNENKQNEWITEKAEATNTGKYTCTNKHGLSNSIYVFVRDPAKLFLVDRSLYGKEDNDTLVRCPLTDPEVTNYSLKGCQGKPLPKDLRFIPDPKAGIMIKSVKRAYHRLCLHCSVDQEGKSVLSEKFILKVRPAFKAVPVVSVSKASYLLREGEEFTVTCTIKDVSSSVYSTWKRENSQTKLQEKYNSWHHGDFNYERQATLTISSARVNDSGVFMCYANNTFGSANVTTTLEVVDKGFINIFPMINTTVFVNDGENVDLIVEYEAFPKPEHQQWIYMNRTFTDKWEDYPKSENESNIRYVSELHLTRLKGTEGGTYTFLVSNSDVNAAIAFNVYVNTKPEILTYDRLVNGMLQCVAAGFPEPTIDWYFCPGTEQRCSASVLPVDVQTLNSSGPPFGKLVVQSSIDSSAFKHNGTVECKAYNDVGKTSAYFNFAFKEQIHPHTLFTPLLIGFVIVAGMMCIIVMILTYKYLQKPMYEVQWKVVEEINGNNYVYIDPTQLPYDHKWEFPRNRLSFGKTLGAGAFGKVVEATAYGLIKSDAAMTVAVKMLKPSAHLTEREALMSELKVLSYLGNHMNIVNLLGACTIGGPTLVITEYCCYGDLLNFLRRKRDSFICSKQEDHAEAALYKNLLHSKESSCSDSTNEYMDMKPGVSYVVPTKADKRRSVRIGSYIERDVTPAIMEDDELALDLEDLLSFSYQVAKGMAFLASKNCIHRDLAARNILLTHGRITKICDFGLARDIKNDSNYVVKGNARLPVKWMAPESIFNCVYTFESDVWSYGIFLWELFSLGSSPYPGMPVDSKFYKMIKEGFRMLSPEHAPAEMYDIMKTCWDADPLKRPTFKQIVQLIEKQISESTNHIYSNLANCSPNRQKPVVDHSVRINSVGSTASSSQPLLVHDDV

[7] = biological target: T3, recombinant KIT D4/D5 polypeptide …; experiment: binding assays on the D4/D5 region of human KIT (solid phase ELISA); IgG version of Fab Ab1 (Dyax reformatting), Example 2
[8] = biological target: T3, recombinant KIT D4/D5 polypeptide …; experiment: solid phase ELISA, recombinant D4/D5 region coated on plate, full-length human IgG1
Description: Serial antibody dilutions were prepared as follows. A starting antibody concentration of 300 nM (or lower depending on sample) was diluted down 1:3 in dilution buffer. Specifically, 200 μl of the starting concentration (top row of dilution plate) was prepared, and 75 μl was diluted into 150 μl in the row below. The dilution was mixed, and the dilution step was repeated down the plate. From the dilution plate, 100 μl was transferred to the assay plate.
The binding assays were carried out as follows. The plate coated with antigen (i.e., recombinant D4/D5 region of KIT) were removed from the −80° C. freezer and were allowed to warm to room temperature. The borate buffer was removed by flicking the plate into the sink and blotting it dry. 200 μL of the blocking buffer (1% BSA/TBS) was added and incubated at room temperature for one hour. The blocking buffer was then removed by flicking the plate into the sink, and blotting dry. Then, the serially diluted antibodies and controls were added to the plate in a volume of 100 μL, and the plate was sealed and incubated at room temperature for one hour.

[9] = biological target: T4, full-length, wild-type human KIT; experiment: immunofluorescence staining with Ab1-Alexa488 on CHO/KIT and NIH3T3/KIT cells, confocal microscopy
Description: Immunofluorescence staining assays were carried to determine if antibody Ab1 was internalized by cells. The immunofluorescence staining assays were carried out essentially as described below. Materials and reagents for the immunofluorescence assays include the following: [0745] Tissue culture slides: Poly-D-Lysine coated four or eight well chamber slide [0746] Antibody: Antibody Ab1 conjugated with the fluorescent dye Alexa-488 (Invitrogen) [0747] Fixative: 4% paraformaldehyde; store 40% PFA microscopy grade in fridge and dilute 1:10 with PBS just before use [0748] Mounting media: Prolong Gold antifade+DAPI [0749] CHO cells engineered to express exogenous human, wild-type KIT (full-length) (“CHO/KIT”) [0750] NIH3T3 cells engineered to express exogenous human, wild-type KIT (full-length) [0751] (“NIH3T3/KIT”)
15,000 to 30,000 CHO/KIT cells or NIH3T3/KIT cells were seeded into each well of the tissue culture slide. The cells were cultivated for at least 24 hrs before starvation in media containing no fetal bovin serum overnight. Ab1-Alexa488 was diluted in starvation media containing 1% bovine serum albumin and pipetted onto the cell layer. 5 to 60 min later, cell layers were washed once with PBS (room temperature). Cell layers were fixed for 18 min with fixative at room temperature, and were washed 3 times with PBS. […] Internalization of the antibody was analyzed by confocal microscopy.

Row | Binder | binding result [1] | binding result [2] | binding result [3] | other results
1 | B1 | no binding | no binding | binds | 
2 | B2 | no binding | no binding | binds | 
3 | B3 | no binding | no binding | binds | 
4 | B4 |  |  |  | binding result [4]: binds
5 | B5 |  |  |  | EC50 [5]: ≤ 300 nM
6 | B6 | no binding | no binding | binds | 
7 | B7 | no binding | no binding | binds | 
8 | B8 |  |  |  | IC50 of inhibition of KIT phosphorylation (phospho-KIT assay) [6]: ~2.5 nM; EC50 [7]: ~0.007 nM
9 | B9 |  |  |  | 50% inhibition concentration (IC50) of tyrosine phosphorylation of the cytoplasmic domain of KIT (cell-based phospho-KIT assay) [6]: 2.2 nM; EC50 [8]: 0.171 nM
10 | B10 |  |  |  | binding result [9]: binds
11 | B11 |  |  |  | 50% inhibition concentration (IC50) of tyrosine phosphorylation of the cytoplasmic domain of KIT (cell-based phospho-KIT assay) [6]: 1.3 nM; EC50 [8]: 0.156 nM
12 | B12 |  |  |  | EC50 [5]: ≤ 300 nM
